How the values were obtained:
SNU620 (human) = SNU620 (human) (UniProt P56856); experiment: FACS binding, SNU620 cells; conditions: bispecific antibody
Jurkat (human) = Jurkat (human) (UniProt P07766); experiment: FACS binding, Jurkat cells; conditions: bispecific antibody
Sequence of Jurkat (human) (P07766 23-207): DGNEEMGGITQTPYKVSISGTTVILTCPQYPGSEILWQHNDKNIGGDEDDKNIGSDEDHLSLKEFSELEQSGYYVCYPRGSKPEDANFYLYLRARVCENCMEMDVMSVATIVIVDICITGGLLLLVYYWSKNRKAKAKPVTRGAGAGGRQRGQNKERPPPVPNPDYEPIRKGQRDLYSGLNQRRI

- EC50 (SNU620 (human)): 87.8 nM
- EC50 (Jurkat (human)): 0.55 nM
Substance: AMG-910
